Test results reported in patent publication US20030119077A1.

Tests used:
[1] = target: cytokeratin protein; test: cytokeratin immunocytochemistry (CAM5.2-FITC) on fixed TSU-PRI cells; percent of cells stained
[2] = target: cytokeratin protein; test: cytokeratin immunocytochemistry (CAM5.2-FITC) on fixed LNCaP cells; percent of cells stained
[3] = target: cytokeratin protein; test: cytokeratin immunocytochemistry (CAM5.2-FITC) on fixed PC-3 cells; percent of cells stained
[4] = target: cytokeratin protein; test: cytokeratin immunocytochemistry (CAM5.2-FITC) on fixed DUMS cells; percent of cells stained

Measured: Percentage of positive staining

FITC conjugated Anti-Cytokeratin (CAM5.2) monoclonal antibody (Becton-Dickinson, Cat. 347653)
100%: all assays above
